In patent US20180355014A1 (JUNO THERAPEUTICS, published 2018):

Columns and labels:
HLA-A*11:01 = target: T1, HLA-A*11:01 (human); test: REVEAL MHC-peptide binding assay, recombinant HLA-A*11:01
T1 construct: Recombinant MHC class I molecule without the test peptide; the peptide is the other partner
Procedure: (§1) Specifically, assessment was of a series of overlapping 9-mer peptides derived from the sequence […] (set forth in SEQ ID NO: 7), which contains a portion of the CD28 transmembrane domain and 4-1BB costimulatory domain spanning the junction between the domains (bond joining the two amino acids noted in underline). In addition, a series of overlapping 9-mer peptides of each of a number of different variants of this portion also were assessed, each variant containing a mutation or mutations in this region as described in Example 2.
(§2) The various 9-mer overlapping peptides were synthesized and their purity tested by MALDI-TOF Mass Spectrometry.

HLA-B*08:01 = target: T2, HLA-B*08:01 (human); test: REVEAL MHC-peptide binding assay, recombinant HLA-B*08:01
T2 construct: Recombinant MHC class I molecule without the test peptide; the peptide is the other partner
Procedure: as §1, §2

| Binder | In Vitro Score (HLA-A*11:01) | In Vitro Score (HLA-B*08:01) |
| --- | --- | --- |
| AFIIFWVKR (synthetic 9-mer) [AFIIFWVKR (SEQ ID NO: 17)] | 25.9 % of positive control peptide | 1.9 % of positive control peptide |
| AFIIFWVLR (synthetic 9-mer; the entry already carries the mutation) [AFIIFWVLR (SEQ ID NO: 31)] | 17.2 % of positive control peptide | 0.2 % of positive control peptide |
| AFIIFWVQR (synthetic 9-mer; the entry already carries the mutation) [AFIIFWVQR (SEQ ID NO: 51)] | 15 % of positive control peptide | 0 % of positive control peptide |
| FIIFWVKRG (synthetic 9-mer) [FIIFWVKRG (SEQ ID NO: 18)] | 0.4 % of positive control peptide | 0.1 % of positive control peptide |
| FIIFWVLRG (synthetic 9-mer; the entry already carries the mutation) [FIIFWVLRG (SEQ ID NO: 32)] | 2.4 % of positive control peptide | 0.2 % of positive control peptide |
| FIIFWVQRG (synthetic 9-mer; the entry already carries the mutation) [FIIFWVQRG (SEQ ID NO: 52)] | 1.5 % of positive control peptide | 0.6 % of positive control peptide |
| FIIFWVSRG (synthetic 9-mer; the entry already carries the mutation) [FIIFWVSRG (SEQ ID NO: 25)] | 5.1 % of positive control peptide | 0.4 % of positive control peptide |
| IFWVKRGRK (synthetic 9-mer) [IFWVKRGRK (SEQ ID NO: 20)] | 29.3 % of positive control peptide | 0.4 % of positive control peptide |
| IFWVLRGRK (synthetic 9-mer; the entry already carries the mutation) [IFWVLRGRK (SEQ ID NO: 34)] | 29.3 % of positive control peptide | 0 % of positive control peptide |
| IFWVQRGSK (synthetic 9-mer; the entry already carries the mutations) [IFWVQRGSK (SEQ ID NO: 78)] | 103 % of positive control peptide | 0 % of positive control peptide |
| FWVKRGRKK (synthetic 9-mer) [FWVKRGRKK (SEQ ID NO: 21)] | 6.5 % of positive control peptide | 0 % of positive control peptide |
| FWVARGRKK (synthetic 9-mer; the entry already carries the mutation) [FWVARGRKK (SEQ ID NO: 48)] |  | 0 % of positive control peptide |
| FWVHRGRKK (synthetic 9-mer; the entry already carries the mutation) [FWVHRGRKK (SEQ ID NO: 42)] | 5.6 % of positive control peptide | 0 % of positive control peptide |
| FWVKRGAKK (synthetic 9-mer; the entry already carries the mutation) [FWVKRGAKK (SEQ ID NO: 71)] | 13.2 % of positive control peptide | 0.3 % of positive control peptide |
| FWVKRGHKK (synthetic 9-mer; the entry already carries the mutation) [FWVKRGHKK (SEQ ID NO: 67)] | 27.6 % of positive control peptide | 0.4 % of positive control peptide |
| FWVKRGLKK (synthetic 9-mer; the entry already carries the mutation) [FWVKRGLKK (SEQ ID NO: 63)] | 25.3 % of positive control peptide |  |
| FWVKRGNKK (synthetic 9-mer; the entry already carries the mutation) [FWVKRGNKK (SEQ ID NO: 75)] | 7.3 % of positive control peptide | 0.1 % of positive control peptide |
| FWVKRGSKK (synthetic 9-mer; the entry already carries the mutation) [FWVKRGSKK (SEQ ID NO: 59)] | 5.6 % of positive control peptide | 0.1 % of positive control peptide |
| FWVLRGRKK (synthetic 9-mer; the entry already carries the mutation) [FWVLRGRKK (SEQ ID NO: 35)] | 5 % of positive control peptide | 0 % of positive control peptide |

| Binder | In Vitro Score (HLA-A*11:01) | In Vitro Score (HLA-B*08:01) |
| --- | --- | --- |
| FWVQRGAKK (synthetic 9-mer; the entry already carries the mutations) [FWVQRGAKK (SEQ ID NO: 83)] | 18.3 % of positive control peptide | 0 % of positive control peptide |
| FWVQRGNKK (synthetic 9-mer; the entry already carries the mutations) [FWVQRGNKK (SEQ ID NO: 87)] | 5.9 % of positive control peptide | 0 % of positive control peptide |
| FWVQRGRKK (synthetic 9-mer; the entry already carries the mutation) [FWVQRGRKK (SEQ ID NO: 55)] | 5.7 % of positive control peptide | 1.9 % of positive control peptide |
| FWVQRGSKK (synthetic 9-mer; the entry already carries the mutations) [FWVQRGSKK (SEQ ID NO: 79)] | 6.8 % of positive control peptide | 0 % of positive control peptide |
| FWVSRGRKK (synthetic 9-mer; the entry already carries the mutation) [FWVSRGRKK (SEQ ID NO: 28)] | 6.3 % of positive control peptide | 0 % of positive control peptide |
| WVKRGRKKL (synthetic 9-mer) [WVKRGRKKL (SEQ ID NO: 22)] | 4.8 % of positive control peptide | 28.5 % of positive control peptide |
| WVHRGRKKL (synthetic 9-mer; the entry already carries the mutation) [WVHRGRKKL (SEQ ID NO: 43)] | 5.6 % of positive control peptide | 19.2 % of positive control peptide |
| WVKRGLKKL (synthetic 9-mer; the entry already carries the mutation) [WVKRGLKKL (SEQ ID NO: 64)] | 22.1 % of positive control peptide | 65.7 % of positive control peptide |
| WVKRGRKKS (synthetic 9-mer; the entry already carries the mutation) [WVKRGRKKS (SEQ ID NO: 89)] | 6.7 % of positive control peptide | 4.3 % of positive control peptide |
| WVLRGRKKL (synthetic 9-mer; the entry already carries the mutation) [WVLRGRKKL (SEQ ID NO: 36)] | 3.2 % of positive control peptide | 4 % of positive control peptide |
| WVQRGAKKL (synthetic 9-mer; the entry already carries the mutations) [WVQRGAKKL (SEQ ID NO: 84)] | 3.8 % of positive control peptide | 11.4 % of positive control peptide |
| WVQRGSKKL (synthetic 9-mer; the entry already carries the mutations) [WVQRGSKKL (SEQ ID NO: 80)] | 5.9 % of positive control peptide |  |
| WVSRGRKKL (synthetic 9-mer; the entry already carries the mutation) [WVSRGRKKL (SEQ ID NO: 29)] | 4.4 % of positive control peptide | 6.2 % of positive control peptide |
| VAFIIFWVA (synthetic 9-mer; the entry already carries the mutation) [VAFIIFWVA (SEQ ID NO: 44)] | 2.8 % of positive control peptide |  |
| VAFIIFWVH (synthetic 9-mer; the entry already carries the mutation) [VAFIIFWVH (SEQ ID NO: 37)] | 12.3 % of positive control peptide | 0 % of positive control peptide |
| VAFIIFWVQ (synthetic 9-mer; the entry already carries the mutation) [VAFIIFWVQ (SEQ ID NO: 50)] | 3.9 % of positive control peptide |  |
| IIFWVKRGH (synthetic 9-mer; the entry already carries the mutation) [IIFWVKRGH (SEQ ID NO: 65)] | 19.5 % of positive control peptide | 0.1 % of positive control peptide |
| IIFWVQRGN (synthetic 9-mer; the entry already carries the mutations) [IIFWVQRGN (SEQ ID NO: 85)] | 29 % of positive control peptide | 0 % of positive control peptide |
| IIFWVQRGS (synthetic 9-mer; the entry already carries the mutations) [IIFWVQRGS (SEQ ID NO: 77)] | 16.9 % of positive control peptide | 0.1 % of positive control peptide |
